Molecular target: Ku70-Ku80 heterodimer (Ku);PAXX WT (PAXX1-204, C9orf142) (human?;human, UniProt P12956;P13010;Q9BUH6 1-609;1-732;1-204, |)
Experiment: EMSA

Sequence of Ku70-Ku80 heterodimer (Ku);PAXX WT (PAXX1-204, C9orf142) (P12956 whole entry, chain 1 of 3): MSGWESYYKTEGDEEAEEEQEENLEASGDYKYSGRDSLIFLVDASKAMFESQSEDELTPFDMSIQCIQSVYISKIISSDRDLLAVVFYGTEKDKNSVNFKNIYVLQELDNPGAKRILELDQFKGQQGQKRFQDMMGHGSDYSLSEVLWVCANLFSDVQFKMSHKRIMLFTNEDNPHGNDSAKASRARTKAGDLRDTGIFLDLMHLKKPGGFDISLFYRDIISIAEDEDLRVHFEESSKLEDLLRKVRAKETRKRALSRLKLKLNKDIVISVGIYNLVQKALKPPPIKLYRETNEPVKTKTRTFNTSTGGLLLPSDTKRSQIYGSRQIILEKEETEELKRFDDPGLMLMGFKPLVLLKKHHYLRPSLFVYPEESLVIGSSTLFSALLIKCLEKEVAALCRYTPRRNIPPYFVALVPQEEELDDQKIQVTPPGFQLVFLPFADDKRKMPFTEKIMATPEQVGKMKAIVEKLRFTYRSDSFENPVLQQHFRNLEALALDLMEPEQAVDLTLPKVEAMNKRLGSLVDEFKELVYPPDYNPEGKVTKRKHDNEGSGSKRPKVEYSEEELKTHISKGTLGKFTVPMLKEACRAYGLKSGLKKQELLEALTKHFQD
Sequence of Ku70-Ku80 heterodimer (Ku);PAXX WT (PAXX1-204, C9orf142) (P13010 whole entry, chain 2 of 3): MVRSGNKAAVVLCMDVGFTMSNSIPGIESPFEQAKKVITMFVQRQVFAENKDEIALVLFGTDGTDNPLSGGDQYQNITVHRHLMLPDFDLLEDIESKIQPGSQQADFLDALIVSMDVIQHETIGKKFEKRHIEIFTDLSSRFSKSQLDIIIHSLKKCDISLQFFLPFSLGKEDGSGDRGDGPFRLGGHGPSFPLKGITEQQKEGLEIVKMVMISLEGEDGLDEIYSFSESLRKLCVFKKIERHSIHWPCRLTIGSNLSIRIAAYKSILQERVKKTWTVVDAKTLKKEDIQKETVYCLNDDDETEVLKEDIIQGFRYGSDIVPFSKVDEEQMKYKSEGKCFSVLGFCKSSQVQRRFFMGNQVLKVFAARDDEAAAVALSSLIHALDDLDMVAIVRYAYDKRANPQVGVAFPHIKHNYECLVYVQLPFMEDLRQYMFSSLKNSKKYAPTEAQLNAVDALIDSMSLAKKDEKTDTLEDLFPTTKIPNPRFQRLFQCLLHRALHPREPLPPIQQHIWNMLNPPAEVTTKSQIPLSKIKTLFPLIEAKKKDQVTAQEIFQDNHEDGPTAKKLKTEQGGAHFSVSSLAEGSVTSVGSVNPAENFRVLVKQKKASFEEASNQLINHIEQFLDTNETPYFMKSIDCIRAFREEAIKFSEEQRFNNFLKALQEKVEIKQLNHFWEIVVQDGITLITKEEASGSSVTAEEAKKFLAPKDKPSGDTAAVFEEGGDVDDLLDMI
Sequence of Ku70-Ku80 heterodimer (Ku);PAXX WT (PAXX1-204, C9orf142) (Q9BUH6 whole entry, chain 3 of 3): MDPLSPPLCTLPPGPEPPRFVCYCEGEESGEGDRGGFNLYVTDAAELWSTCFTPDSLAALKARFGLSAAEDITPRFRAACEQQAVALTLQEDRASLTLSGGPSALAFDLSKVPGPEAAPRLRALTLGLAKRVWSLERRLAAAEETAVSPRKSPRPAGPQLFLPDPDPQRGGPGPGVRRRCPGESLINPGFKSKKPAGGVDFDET

B1: 50-bp 6-FAM dsDNA (dsDNA)
DNA 1: TAAATGCCAATGCTGCTGATACGTACTCGGACTGATTCGGAACTGTAACG
DNA 2: CGTTACAGTTCCGAATCAGTCCGAGTACGTATCAGCAGCATTGGCATTTA
- binding result: binds
